Assay results published in patent US20260193356A1.

How the values were obtained:
[1] = target: dog (Canis lupus) PDL1 (dPDL1) expressed on CHO-S cells (CHO-S-dPDL1) (dog (Canis lupus)); assay: flow cytometry on CHO-S-dPDL1 cells, secondary antibody only; 1 µg/mL
[2] = target: human PDL1 (hPDL1) expressed on CHO-S cells (CHO-S-hPDL1) (human) (UniProt Q9NZQ7); assay: flow cytometry on CHO-S-hPDL1 cells, secondary antibody only; 1 µg/mL
[3] = target: mouse (Mus musculu) PDL1 (mPDL1) expressed on CHO-S cells (CHO-S-mPDL1) (mouse) (UniProt Q9EP73); assay: flow cytometry on CHO-S-mPDL1 cells, secondary antibody only; 1 µg/mL
[4] = target: dog (Canis lupus) PDL1 (dPDL1) expressed on CHO-S cells (CHO-S-dPDL1) (dog (Canis lupus)); assay: flow cytometry on CHO-S-dPDL1 cells, secondary antibody only; 0.1 µg/mL
[5] = target: monkey (Macaca fascicularis) PDL1 (fasPDL1) expressed on CHO-S cells (CHO-S-fasPDL1) (monkey (Macaca fascicularis)); assay: flow cytometry on CHO-S-fasPDL1 cells, secondary antibody only; 1 µg/mL
[6] = target: human PDL1 (hPDL1) expressed on CHO-S cells (CHO-S-hPDL1) (human) (UniProt Q9NZQ7); assay: flow cytometry on CHO-S-hPDL1 cells, secondary antibody only; 0.1 µg/mL
[7] = target: mouse (Mus musculu) PDL1 (mPDL1) expressed on CHO-S cells (CHO-S-mPDL1) (mouse) (UniProt Q9EP73); assay: flow cytometry on CHO-S-mPDL1 cells, secondary antibody only; 0.1 µg/mL
[8] = target: monkey (Macaca fascicularis) PDL1 (fasPDL1) expressed on CHO-S cells (CHO-S-fasPDL1) (monkey (Macaca fascicularis)); assay: flow cytometry on CHO-S-fasPDL1 cells, secondary antibody only; 0.1 µg/mL
[9] = target: dog (Canis lupus) PDL1 (dPDL1) expressed on CHO-S cells (CHO-S-dPDL1) (dog (Canis lupus)); assay: flow cytometry on CHO-S-dPDL1 cells; antibody 1 µg/mL
[10] = target: human PDL1 (hPDL1) expressed on CHO-S cells (CHO-S-hPDL1) (human) (UniProt Q9NZQ7); assay: flow cytometry on CHO-S-hPDL1 cells; antibody 1 µg/mL
[11] = target: mouse (Mus musculu) PDL1 (mPDL1) expressed on CHO-S cells (CHO-S-mPDL1) (mouse) (UniProt Q9EP73); assay: flow cytometry on CHO-S-mPDL1 cells; antibody 1 µg/mL
[12] = target: dog (Canis lupus) PDL1 (dPDL1) expressed on CHO-S cells (CHO-S-dPDL1) (dog (Canis lupus)); assay: flow cytometry on CHO-S-dPDL1 cells; antibody 0.1 µg/mL
[13] = target: monkey (Macaca fascicularis) PDL1 (fasPDL1) expressed on CHO-S cells (CHO-S-fasPDL1) (monkey (Macaca fascicularis)); assay: flow cytometry on CHO-S-fasPDL1 cells; antibody 1 µg/mL
[14] = target: human PDL1 (hPDL1) expressed on CHO-S cells (CHO-S-hPDL1) (human) (UniProt Q9NZQ7); assay: flow cytometry on CHO-S-hPDL1 cells; antibody 0.1 µg/mL
[15] = target: mouse (Mus musculu) PDL1 (mPDL1) expressed on CHO-S cells (CHO-S-mPDL1) (mouse) (UniProt Q9EP73); assay: flow cytometry on CHO-S-mPDL1 cells; antibody 0.1 µg/mL
[16] = target: monkey (Macaca fascicularis) PDL1 (fasPDL1) expressed on CHO-S cells (CHO-S-fasPDL1) (monkey (Macaca fascicularis)); assay: flow cytometry on CHO-S-fasPDL1 cells; antibody 0.1 µg/mL

Chain of mouse (Mus musculu) PDL1 (mPDL1) expressed on CHO-S cells (CHO-S-mPDL1) (mouse) (Q9EP73 19-290 limits assumed): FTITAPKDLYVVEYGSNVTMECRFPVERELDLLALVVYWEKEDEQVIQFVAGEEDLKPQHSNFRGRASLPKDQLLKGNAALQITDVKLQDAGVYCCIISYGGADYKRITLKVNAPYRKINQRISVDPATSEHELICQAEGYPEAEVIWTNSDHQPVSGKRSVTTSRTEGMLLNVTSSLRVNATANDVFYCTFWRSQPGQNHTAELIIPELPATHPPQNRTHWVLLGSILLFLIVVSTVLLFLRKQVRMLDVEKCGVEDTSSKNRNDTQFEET
Chain of human PDL1 (hPDL1) expressed on CHO-S cells (CHO-S-hPDL1) (human) (Q9NZQ7 19-290 limits assumed): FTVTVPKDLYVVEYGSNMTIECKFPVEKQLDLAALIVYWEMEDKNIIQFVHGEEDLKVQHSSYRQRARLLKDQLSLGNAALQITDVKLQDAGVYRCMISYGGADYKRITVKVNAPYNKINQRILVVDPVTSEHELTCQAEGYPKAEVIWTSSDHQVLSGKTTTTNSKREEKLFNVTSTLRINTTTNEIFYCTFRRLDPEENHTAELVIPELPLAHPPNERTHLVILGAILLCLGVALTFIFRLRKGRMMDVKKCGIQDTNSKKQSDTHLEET
Chain of dog (Canis lupus) PDL1 (dPDL1) expressed on CHO-S cells (CHO-S-dPDL1) (dog (Canis lupus)) (chain, as listed by the source limits assumed, form in doubt): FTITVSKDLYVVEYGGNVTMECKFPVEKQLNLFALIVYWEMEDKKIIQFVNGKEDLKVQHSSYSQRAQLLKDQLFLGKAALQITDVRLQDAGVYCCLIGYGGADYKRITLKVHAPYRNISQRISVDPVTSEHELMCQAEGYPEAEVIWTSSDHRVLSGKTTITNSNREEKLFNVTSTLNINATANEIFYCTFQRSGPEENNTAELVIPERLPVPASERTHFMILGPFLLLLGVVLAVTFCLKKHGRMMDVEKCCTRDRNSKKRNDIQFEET
Chain of monkey (Macaca fascicularis) PDL1 (fasPDL1) expressed on CHO-S cells (CHO-S-fasPDL1) (monkey (Macaca fascicularis)) (Q9NZQ7 other isoform, or with tags, fused parts or gaps limits assumed): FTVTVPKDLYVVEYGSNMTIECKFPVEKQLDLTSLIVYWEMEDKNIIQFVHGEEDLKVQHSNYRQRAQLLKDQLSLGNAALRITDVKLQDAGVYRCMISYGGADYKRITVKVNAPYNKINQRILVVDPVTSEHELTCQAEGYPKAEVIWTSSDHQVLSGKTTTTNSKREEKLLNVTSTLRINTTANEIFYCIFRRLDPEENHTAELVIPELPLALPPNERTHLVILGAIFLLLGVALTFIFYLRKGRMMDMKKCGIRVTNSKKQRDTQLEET

Row | Percentage of Positive Cells (%) [1] [%] | Percentage of Positive Cells (%) [2] [%] | Percentage of Positive Cells (%) [3] [%] | Percentage of Positive Cells (%) [4] [%] | Percentage of Positive Cells (%) [5] [%] | Percentage of Positive Cells (%) [6] [%] | Percentage of Positive Cells (%) [7] [%] | Percentage of Positive Cells (%) [8] [%] | Percentage of Positive Cells (%) [9] [%] | Percentage of Positive Cells (%) [10] [%] | Percentage of Positive Cells (%) [11] [%] | Percentage of Positive Cells (%) [12] [%] | Percentage of Positive Cells (%) [13] [%] | Percentage of Positive Cells (%) [14] [%] | Percentage of Positive Cells (%) [15] [%] | Percentage of Positive Cells (%) [16] [%] | Substance
1 | 1.76 | 1.13 | 2.31 | 1.68 | 2.34 | 1.48 | 1.04 | 1.38 |  |  |  |  |  |  |  |  | secondary antibody anti-hIgG-Fc-Alex Flour 647 (RL1-H) (Jackson ImmunoResearch Laboratories, Inc., 109-606-170)
2 |  |  |  |  |  |  |  |  | 4.28 | 3.05 | 3.52 | 14.2 | 2.53 | 2.01 | 2.26 | 1.87 | ISO (isotype control, antibody with the same IgG1 subtype but targeting an unrelated target)
